Reference: patent US20180311331A1, “PROGNOSIS AND TREATMENT OF SQUAMOUS CELL CARCINOMAS” (THE REGENTS OF THE UNIVERSITY OF COLORADO, a body corporate, priority 2015, published 2018)

T1: IL-8 (Homo sapiens, UniProt P10145)
T1 sequence (P10145 21-99): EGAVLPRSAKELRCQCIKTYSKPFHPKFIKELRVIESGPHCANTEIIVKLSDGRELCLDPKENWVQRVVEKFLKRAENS

B1: Cxcl14: chemokine, approximately 9.5 kD secreted protein; tested by re-expression in MOE/E6E7 tumor cells (clones 8 and 16) (protein, UniProt Q9WUQ5 23-99, looked up)
C-X-C motif chemokine 14: SKCKCSRKGPKIRYSDVKKLEMKPKYPHCEEKMVIVTTKSMSRYRGQEHCLHPKLQSTKRFIKWYNAWNEKRRVYEE

Experiments:
[1] = tested on: MDSCs; conditions: without any effect on B and T cells, NK cells, or macrophages; cited from earlier work
[2] = tested on: MOE/E6E7 cells; assay: Tumor growth and survival after injection of MOE/E6E7 cells expressing Cxcl14 into Rag1-/- B6 mice; assay type: in vivo, mouse
Procedure: (§1) Two MOE/E6E7 cell clones expressing Cxcl14 (clones 8 and 16) and one vector containing MOE/E6E7 cell clone were injected into the rear right flank of wildtype (A & B) and Rag1−/− (C & D) B6 mice (n=10, each group of wildtype; n=7, each group of Rag1−/). (A & C) Tumor growth was determined every week by the formula: volume=(width) 2×length. Survival rates were analyzed using a Kaplan-Meier estimator. (B & D) Time-to-event was determined for each group (vector only, Cxcl14-clone 8, Cxcl14-clone 16) with the event being tumor burden larger than 2,500 mm3. Deaths not associated with tumor were censored. P-values were determined by the Log-rank test.
(§2) CXCL14 is an evolutionary-conserved chemokine showing 98% homology between human CXCL14 and murine Cxcl14. […] To characterize immune cell infiltration regulated by Cxcl14 expression, the inventors analyzed various immune cells in tumor tissue, tumor draining lymph node (TDLN), and in spleen harvested from the wildtype B6 mice at 21 days after injection with a control or with Cxcl14 expressing MOE/E6E7 cells. […]
(§3) To determine whether CXCL14 affects tumor growth in vivo, the inventors utilized an HNSCC mouse model with MOE/E6E7 cells that form tumors in immunocompetent syngeneic mice. […] Next, the inventors determined whether CXCL14 directly induces chemotaxis of CD8^+ T and NK cells using the Transwell system and splenocytes isolated from B6 mice.

[3] = biological target: T1, IL-8; conditions: another study; cited from earlier work
[4] = tested on: splenocytes isolated from B6 mice; assay: In vitro migration assay using the Transwell system; assay type: cell-based, mouse
Procedure: MOE cells with Cxcl14 or vector were cultured on the bottom chamber of a Transwell. Splenocytes were added to the upper chamber. After 12 hr incubation, migrated splenocytes to the bottom chamber were collected and analyzed by flow cytometry.
as §2, with “murine Cxcl14. To determine whether CXCL14 affects tumor growth in vivo, the inventors studied mouse oropharyngeal epithelial cells (MOE/E6E7) that form tumors in immunocompetent syngeneic C57BL/6 (B6) mice. […] To test tumor suppressor functions of CXCL14, the inventors established MOE/E6E7 cell lines that re-expressed their physiological levels of” for “murine”
as §3

[5] = tested on: CD8+ T, NK and Treg cells; assay: Immune cell populations by flow cytometry in wildtype B6 mice bearing Cxcl14-expressing MOE/E6E7 cells; assay type: in vivo, mouse
Procedure: MOE/E6E7 cells with Cxcl14 (clones #8 and #16) or vector were injected into the right flank of B6 mice (n=3, each group). Tumor (A) and lymph nodes (B) tissues were harvested at 21 days post injection. Percentage of immune cell populations was determined by flow cytometry.
MOE/E6E7 cell clones expressing Cxcl14 (8 and 16) and one vector containing MOE/E6E7 cell clone were injected into the rear right flank of B6 mice (n=3, each group). Spleen was harvested at 21 days post injection and analyzed by flow cytometry. Relative abundance of Treg cells was determined using anti-CD4 and CD25 antibodies.
as §2, with “murine Cxcl14. To determine whether CXCL14 affects tumor growth in vivo, the inventors studied mouse oropharyngeal epithelial cells (MOE/E6E7) that form tumors in immunocompetent syngeneic C57BL/6 (B6) mice. […] To test tumor suppressor functions of CXCL14, the inventors established MOE/E6E7 cell lines that re-expressed their physiological levels of” for “murine”

[6] = tested on: MOE/E6E7 cells; assay: Tumor growth and survival after injection of MOE/E6E7 cells expressing Cxcl14 into wildtype B6 mice; assay type: in vivo, mouse; conditions: wildtype B6 mice injected with MOE/E6E7 cells expressing Cxcl14
Procedure: as §1, §2, §3

[7] = tested on: myeloid-derived suppressor cells (MDSC); assay: MDSC abundance by flow cytometry in tumor and spleen of Rag1-/- mice; assay type: in vivo, mouse; conditions: mice injected with MOE/E6E7 cells re-expressing Cxcl14 vs empty vector, 23 days post injection
Procedure: MOE/E6E7 cell clones expressing Cxcl14 (8 and 16) and one vector containing MOE/E6E7 cell clone were injected into Rag1−/− mice (n=4, each group). Tumor (A) and spleen (B) were harvested at 23 days post injection, homogenized, and analyzed by flow cytometry. Relative abundance of MDSC cells (A & B) was determined using anti-MHCII, anti-Gr1, and anti-CD11b+ antibodies.
The chemokine receptors CXCR1 and CXCR2 are of primary importance for the migration of granulocytes to sites of inflammation. A recent study has shown that CXCR2 is also required for MDSC infiltration into tumors for cancer development. Additionally, blocking CXCR2-mediated MDSC infiltration enhances efficacy of anti-PD1 therapy. […] Thus, it is likely that CXCR2 ligands produced by HNSCC cells recruit MDSCs into the TME, and that CXCL14 expression interferes with IL-8 mediated MDSC infiltration. Thus, it will be verified that CXCL14 expression in HPV+ HNSCC cells reverses the immunosuppressive microenvironment by inhibiting Cxcr2-mediated MDSC expansion and infiltration. These experiments will determine novel mechanisms by which downregulation of CXCL14 triggers immune suppression in the TME.

Row | Molecule | MDSC elimination in tumor-bearing mice [1] | Time to succumb to tumor burden ([2]; Rag1-/- B6 mice injected with MOE/E6E7 cells re-expressing Cxcl14) [days post injection] | Tumor growth ([2]; Rag1-/- mice injected with Cxcl14 expressing MOE/E6E7 cells) | Binding to IL-8 [3] | Migration of CD8+ T and NK cells to Cxcl14 expressing HNSCC cells ([4]; 12 hr incubation, compared to vector containing HNSCC cells) | Migration of macrophages and CD4+ T cells ([4]; CXCL14 expressing MOE/E6E7 cells, splenocytes from B6 mice) | Treg cells in spleens ([5]; B6 mice with tumors re-expressing Cxcl14, 21 days post injection) | Percentages of CD8+ T and NK cells in tumor tissues and TDLNs ([5]; wildtype B6 mice, 21 days after injection, vs vector containing cells) | Tumor clearance [6] | MDSCs in tumors and spleens [7]
1 | Nc1ccn([C@@H]2O[C@H](CO)[C@@H](O)C2(F)F)c(=O)n1 [gemcitabine] | selectively eliminates MDSCs through apoptosis | – | – | – | – | – | – | – | – | –
2 | B1 | – | ≤ 32 | delayed tumor growth | directly binds to IL-8 | 3-4 fold | little effect | significantly decreased | highly increased | a majority of B6 mice injected with MOE/E6E7 cells expressing Cxcl14 cleared tumors | significantly decreased
